Data as given in the supplement of paper PMC12764529.
± gives the half width of the 95% confidence interval.

Columns and labels:
[1] = folding stability dG unfold from trypsin proteolysis; higher = more stable
Method in brief: (§1)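 Only designs with AlphaFold2 dimer inter-PAE above 15 were retained; each was a mini-protein under 80 residues with no cysteine, in a PA-tagged cDNA display construct. After digestion with trypsin and chymotrypsin and sequencing, K50 was inferred by Bayesian fitting of counts, and unfolding free energy was derived per protease or combined against a sequence-predicted unfolded-state K50 and a shared folded-state K50.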

[2] = folding stability dG unfold from chymotrypsin proteolysis; higher = more stable
Method in brief: as §1

[3] = folding stability dG unfold (combined trypsin and chymotrypsin); higher = more stable
Method in brief: as §1

Sequence | folding stability dG unfold [1] | folding stability dG unfold [2] | folding stability dG unfold [3]
SAGGSAAVTITSVPPDGTIRATATNPTNGETVTITFSPETSPEEAVAAIQKELGGPVPVTAVTPAGSAGGSA [r15_544_JUSTAS] | 0.975 ± 0.033 kcal/mol | 1.57 ± 0.062 kcal/mol | 1.42 ± 0.1 kcal/mol
SAGGSAGGSAGGMEFKPGQEIEIVLKDENGRLIVIKAKVKKVDGKLVIEIEEAYELDDLSAGGSAGGSAGGS [r10_744_TrROS_Hall] | 2.34 ± 0.12 kcal/mol | 2 ± 0.14 kcal/mol | 2.05 ± 0.26 kcal/mol
SAGGSAGGSAGGKRYRVTELEVVEVDGEKRLLVRFEDGRTQAFPAGAKISPDGAEIELLPSAGGSAGGSAGG [r7_931_TrROS_Hall] | 0.469 ± 0.042 kcal/mol | 1.44 ± 0.033 kcal/mol | 1.14 ± 0.04 kcal/mol
SAGGSAAVDLSERPPALPVPLKVEVIPIPETGSSLVLVTHPDGFVLLARVNPEGEVELLSAFSLDDSAGGSA [r15_790_TrMRF] | 1.56 ± 0.066 kcal/mol | 2.86 ± 0.074 kcal/mol | 2.51 ± 0.14 kcal/mol
SAGGMVTLTLPSPDGSTLTVTVEKDPNADYYRATVTTHHPDGTVTVTESVIHPDGTTTTLATTTLPASAGGS [r16_213_JUSTAS] | 2.11 ± 0.08 kcal/mol | 2.22 ± 0.04 kcal/mol | 2.23 ± 0.12 kcal/mol
SAGGSAGGSAGSSPSDLKVTLKVTLPDGTVLTVVMPAHATLDDFPADRPVTVTTLETKLESAGGSAGGSAGG [r11_997_JUSTAS] | 1.66 ± 0.084 kcal/mol | 0.656 ± 0.043 kcal/mol | 1.29 ± 0.12 kcal/mol
SAGGNLMIRVELYRPKPDPEGEWQKREVTLPMPPGEPIEELIDELRPPGWVIEIDIFDNGKPIREYYIRSAG [r5_278_TrROS] | 1.76 ± 0.12 kcal/mol | 2.86 ± 0.14 kcal/mol | 2.34 ± 0.35 kcal/mol
SAGGSAGGPNMYMFKLEIKWYDPGKGKPVATRPITVMVPEDDLPEILKNLPPGFEIKNITIFPMSAGGSAGG [r6_777_TrROS] | 2.16 ± 0.058 kcal/mol | 2.5 ± 0.071 kcal/mol | 2.45 ± 0.11 kcal/mol
SAGGSAGGSAVVSVSPDGYLRLAYYPETGELRELPPDVSVEEFLEAFPDVVVLAAPVAPTPESAGGSAGGSA [r18_53_TrMRF] | 0.961 ± 0.016 kcal/mol | 1.65 ± 0.029 kcal/mol | 1.41 ± 0.048 kcal/mol
SMVKTIEIEIVLPPGEWVKLTEEDIKEKIEKELPGWKILSIDITKEERLVPGGTEPLVVIKAKILVEKKESA [r9_1189_JUSTAS] | 4.26 ± 0.26 kcal/mol | 3.19 ± 0.14 kcal/mol | 3.83 ± 0.21 kcal/mol
SAGGSAGGSAAKIVDINISVRRSPENGYWKIPITIRIKGPNGKEQEIDLTMVFKIPPGQPLFSAGGSAGGSA [r18_95_TrROS] | 2.83 ± 0.072 kcal/mol | 2.88 ± 0.043 kcal/mol | 2.9 ± 0.15 kcal/mol
SSSPSGLSVTSSTVTKVETDPGPGNVTTVTVTTLNNSVLIIPLPGKPLVIPTNTTVETTYTVPPDDPSPASA [r9_531_JUSTAS] | 1.31 ± 0.073 kcal/mol | 0.87 ± 0.11 kcal/mol | 1.15 ± 0.074 kcal/mol
SAGGSAGGSAGAPPGSTVTVTYTVTTTVTDRVPDGPGFTNPHTLTSTVTTTVNVGHPDLVSAGGSAGGSAGG [r11_734_TrMRF] | 0.833 ± 0.058 kcal/mol | 0.00274 ± 0.17 kcal/mol | 0.585 ± 0.12 kcal/mol
SAGGSAAMVPPEELAERLAEELAAKEGREVTEVTVEVLDPERGVVRVTVTFRSPEGLSTRTVVVDLSAGGSA [r15_32_JUSTAS] | 3.24 ± 0.057 kcal/mol | 3.191 ± 0.026 kcal/mol | 3.21 ± 0.049 kcal/mol
SAGGSAGGSMKLPPELKGKKIRIRVRNKNGETVEAEATVLEDGTIEIKIEGLSEEEITEIEIESAGGSAGGS [r12_477_TrROS_Hall] | 2.36 ± 0.038 kcal/mol | 2.21 ± 0.035 kcal/mol | 2.3 ± 0.076 kcal/mol
SAGGSAKKPKWIPIKIKLPGSLEEAREWAEEIAKWLAKQNGDIKIDAIKYERDPNGHVEVTIQVRVSAGGSA [r15_718_TrROS] | 2.36 ± 0.066 kcal/mol | 3.83 ± 0.059 kcal/mol | 3.36 ± 0.086 kcal/mol
SAGGAVEITDISSKTVTEPVTFENGTVVPQERTAGTVTTTENGTPVATVPFTSEEELEEAIARALAESAGGS [r8_21_JUSTAS] | -0.276 ± 0.22 kcal/mol | 1.24 ± 0.034 kcal/mol | 0.869 ± 0.1 kcal/mol
SGLTLTLPVAPDEELKLTLKLPNTDETVEVEAETVAETGDVFAVAVATPPNGDKKVVPAVIKVEPGEPDESA [r9_770_TrMRF] | 0.704 ± 0.038 kcal/mol | 0.332 ± 0.16 kcal/mol | 0.642 ± 0.12 kcal/mol
SAMVRIERLPDGSLLVVVESEGKEEGLEFIERFIEEIKSLGIDAEIELLSIEEIPEDPKRYRATFLIKASAG [r14_119_TrMRF] | 4.83 ± 0.22 kcal/mol | 6.12 ± 0.27 kcal/mol | > 6 kcal/mol
SAGGSAGGSAMKYKVTVTTTPPDGTTTTTPTVVDFKSKEEIEEYVKKKAPKDTKVEVEIEPESAGGSAGGSA [r18_60_JUSTAS] | -0.228 ± 0.085 kcal/mol | 0.0584 ± 0.22 kcal/mol | 0.0447 ± 0.19 kcal/mol
SAGGKKKKVKKIKVKVKIKLKNGEEVTITEAYVLPDGTVIIKVEVTKPDGSKETKTFTIPLKDIEIESAGGS [r16_498_TrROS_Hall] | 2.24 ± 0.075 kcal/mol | 3.7 ± 0.07 kcal/mol | 3.34 ± 0.11 kcal/mol

Sequence | folding stability dG unfold [1] | folding stability dG unfold [2] | folding stability dG unfold [3]
SAKKTITITKITLTLFNKDGKPVATAEITSIEITYDPKTNTFTITATVKVTLPNGKTFTFKLTITLPVKSAG [r14_609_TrROS_Hall] | 3.91 ± 0.18 kcal/mol | 4.87 ± 0.21 kcal/mol | 4.55 ± 0.41 kcal/mol
SGKKKIKIYVESIEVFEDGVVKIKVKAIFPDGSEEDVIAEIRVEPDEDGRPHLLVVIRIGDKDFLLVLDASA [r9_271_TrMRF] | 2.81 ± 0.11 kcal/mol | 3.15 ± 0.059 kcal/mol | 2.96 ± 0.17 kcal/mol
STLEELLEAIEKLPPGAVVRITITLENGEKIELPIEMTVEELKEQLEALAAEHPGKKIEIKIEVIPKEELSA [r9_37_TrROS_Hall] | 3.66 ± 0.38 kcal/mol | 2.78 ± 0.28 kcal/mol | 3.43 ± 0.56 kcal/mol
SAGMAEKIKAELEKKGYKYEIEEVKDPNNDKTYLIVKIYPKDGKEYIIIFDKEKGEVIKKIPSDEPNILSAG [r5_938_JUSTAS] | 1.49 ± 0.13 kcal/mol | 1.59 ± 0.14 kcal/mol | 1.64 ± 0.24 kcal/mol
SAGGSAGGSSKYIKFIIPANSPEAIEKAKELAEFIKKKYPGIKKIEVKYNPEKGYLEVIAEVESAGGSAGGS [r12_248_TrMRF] | 4.08 ± 0.28 kcal/mol | 3.87 ± 0.048 kcal/mol | 3.96 ± 0.17 kcal/mol
SHWVRKELQEKGYPVKDIEMNPPQGYFYITIQRKRPRKGKPKKKEITIPMDPNMTPDNMLWMARNALDAYSA [r9_184_TrROS] | 1.05 ± 0.14 kcal/mol | 0.594 ± 0.14 kcal/mol | 0.804 ± 0.1 kcal/mol
SAGGSANGYFILIKIEEIKLTKMRRDPDGKQWQWNFSVKIKIEVVKVFRIKPDPNGNWKIEPGDPISAGGSA [r15_162_TrROS] | 3.01 ± 0.11 kcal/mol | 3.33 ± 0.053 kcal/mol | 3.25 ± 0.12 kcal/mol
SAGGDLIERVAKELMEKFPMKPGEPRPITIEIPYPDGYRIKVDIPVRVNPDNGEFRFKFDIKEIEPWSAGGS [r16_634_TrROS] | 1.02 ± 0.052 kcal/mol | 1.43 ± 0.16 kcal/mol | 1.25 ± 0.13 kcal/mol
SAGGSDVEIEVFENAIIITIPLDLDNGKGETVEVRIIAPFTPDGRPIFRIEVINPDSDEVVTFTFPSAGGSA [r2_484_TrMRF] | 2.66 ± 0.081 kcal/mol | 2.766 ± 0.017 kcal/mol | 2.71 ± 0.068 kcal/mol
SAGGSMLIKIKLPKNNPLRDKIVEKLKKSPYVKDVKVKRLKELPNYEIFLIEVDGDPKVADEIKKLASAGGS [r16_394_TrMRF] | 2.16 ± 0.09 kcal/mol | 3.08 ± 0.045 kcal/mol | 2.83 ± 0.15 kcal/mol
SAGGSAGGSAGGEDLKINIKISEITFSPDGWITMSMRGGNGRWFQHTIKVKIKLPPGDPSAGGSAGGSAGGS [r10_281_TrROS] | 2.77 ± 0.14 kcal/mol | 3.15 ± 0.038 kcal/mol | 3 ± 0.12 kcal/mol
SAMIVVPATFDDRTFVLRIERLPDGSYLVDVEDPDVSREAVVEALRELLPEDAKIVLDPETNLVYVSFDSAG [r14_370_TrMRF] | 3.34 ± 0.11 kcal/mol | 3.73 ± 0.052 kcal/mol | 3.55 ± 0.086 kcal/mol
SAGGSAGGIKYRVMVHNPESGRWHRIDDIEIDPPDGRIKIRFPGNGKEITIPPGYPIMISPDMLSAGGSAGG [r6_885_TrROS] | 0.662 ± 0.1 kcal/mol | 0.793 ± 0.17 kcal/mol | 0.795 ± 0.071 kcal/mol
SAGGSAGGSAGGKMWIMIPKNEPINLPPGFDKVEIMTNPDDGYVMIRVDSPEDFKRLLEASAGGSAGGSAGG [r7_172_TrROS] | 1.405 ± 0.01 kcal/mol | 0.866 ± 0.058 kcal/mol | 1.2 ± 0.065 kcal/mol
SAGGSAGGSAGGKIIVYNPETGKPEEVSPEDLEEIIKNTPGPLILKVGEGEIELNAKDISAGGSAGGSAGGS [r10_839_TrMRF] | 0.807 ± 0.051 kcal/mol | 0.862 ± 0.067 kcal/mol | 0.828 ± 0.12 kcal/mol
SMPGSITVEIEVEEEEDPERGGRRIKKLLIKKVTYKDEKGNSSDEVANEIKNALKEKLEKEGKPAEIELTSA [r9_261_JUSTAS] | 1.35 ± 0.081 kcal/mol | 1.11 ± 0.23 kcal/mol | 1.27 ± 0.37 kcal/mol
SAGGSAGGSAGTLKLTLEVTVTRLYRLPDGSGSLVAETVRVRVEVELEVDELDEDGRLLLSAGGSAGGSAGG [r11_558_TrROS_Hall] | 3.08 ± 0.14 kcal/mol | 3.269 ± 0.024 kcal/mol | 3.18 ± 0.07 kcal/mol
SAGGYKITIPAMFDTPEDALDQVREIARSLGYRITDIKNVEVHKHEDNGMVMVEATIKIEPLPKGQLSAGGS [r16_155_TrROS] | 1.77 ± 0.042 kcal/mol | 2.07 ± 0.074 kcal/mol | 1.97 ± 0.12 kcal/mol
SSWEKLSTLTLPSTGLTVTFYYDPSTNSTAVKVTDGAGPELSEKVLSDDETFTLPDGVSIKLPKGAEPASSA [r9_340_JUSTAS] | 0.334 ± 0.021 kcal/mol | 1.45 ± 0.077 kcal/mol | 1.02 ± 0.081 kcal/mol
SAGGSSFTGTVTPVKVDPVNPDLVTVATTLTWPDGTTVPLTRTIPRSVYDSLPENISISVTLSPPSSAGGSA [r2_128_JUSTAS] | -0.0475 ± 0.15 kcal/mol | 1.33 ± 0.1 kcal/mol | 0.942 ± 0.1 kcal/mol
SKKKVTIEIEIVVRVPEGDELKNMTAEELAALLAEELGVEVEIVEVELVEYDEETGEYYVRIKVKITFPESA [r9_107_TrROS_Hall] | 2.95 ± 0.17 kcal/mol | 2.83 ± 0.13 kcal/mol | 2.76 ± 0.14 kcal/mol
